Data published in article PMC3762817, “Therapeutic Targeting of Tumor Growth and Angiogenesis with a Novel Anti-S100A4 Monoclonal Antibody” (PLoS ONE, 2013).

Target: T1, human recombinant RAGE-Fc Chimera (human, UniProt Q15109 23-342)
T1 construct: RAGE (receptor for advanced glycation end products), human; also called RAGE receptor; immobilized RAGE; source: bought: R&D Systems
Test: SPR; Biacore T100; about 1,000 RU of RAGE-Fc immobilised on a CM5 chip by amine coupling; S100A4 0.625-5 µM passed over at 15 µL/min, 60 s contact time; regeneration with 50 mM NaOH
Conditions: both partners purified

T1 sequence (Q15109 23-342, change not shown): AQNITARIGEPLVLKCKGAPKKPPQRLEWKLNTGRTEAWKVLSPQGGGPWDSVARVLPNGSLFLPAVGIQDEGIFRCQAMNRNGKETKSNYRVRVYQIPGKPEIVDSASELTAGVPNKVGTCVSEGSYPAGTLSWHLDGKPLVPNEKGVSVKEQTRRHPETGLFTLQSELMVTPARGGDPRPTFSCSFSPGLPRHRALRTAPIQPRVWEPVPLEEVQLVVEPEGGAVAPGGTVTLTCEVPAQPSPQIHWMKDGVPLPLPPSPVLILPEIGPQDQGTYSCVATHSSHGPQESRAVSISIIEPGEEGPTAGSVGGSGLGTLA

B1: human recombinant S100A4 (natural protein)
chain: not shown
notes: S100A4, human; The His tag is inferred, and its removal is not mentioned; also called S100A4 fusion protein
- binding result: binds
